For experiment [1], the target named is mouse PD-L1 polypeptide on T cells of wild-type mice (mouse) (UniProt Q9EP73). The experiment is described as follows: flow cytometry, CD4+ T cells from spleen of wild-type mouse, isotype control in α-hPD-L1 column.
Experiment [2] has the same target. The experiment is described as follows: flow cytometry, CD8+ T cells from spleen of wild-type mouse, isotype control in α-hPD-L1 column. On the technique in general: Flow cytometry measures light scatter and fluorescence of single cells or particles in a stream.
Experiment [3] deals with humanized PD-L1 polypeptide (human portion and endogenous mouse portion) on T cells of mice homozygous for the humanized CD274 gene of Example 1 (human; mouse) (UniProt Q9NZQ7). The experiment is described as follows: flow cytometry, CD4+ T cells (CD3+CD4+) from spleen of humanized CD274 mouse, isotype control in α-hPD-L1 column.
For experiment [4] the target is unchanged. The experiment is described as follows: flow cytometry, CD8+ T cells (CD3+CD8+) from spleen of humanized CD274 mouse, isotype control in α-hPD-L1 column.
The target of experiment [5] is mouse PD-L1 polypeptide on T cells of wild-type mice (mouse) (UniProt Q9EP73). The experiment is described as follows: flow cytometry, CD4+ T cells from spleen of wild-type mouse, isotype control in α-mPD-L1 column.
Experiment [6] shares this target. The experiment is described as follows: flow cytometry, CD8+ T cells from spleen of wild-type mouse, isotype control in α-mPD-L1 column.
For experiment [7], the target named is humanized PD-L1 polypeptide (human portion and endogenous mouse portion) on T cells of mice homozygous for the humanized CD274 gene of Example 1 (human; mouse) (UniProt Q9NZQ7). The experiment is described as follows: flow cytometry, CD4+ T cells (CD3+CD4+) from spleen of humanized CD274 mouse, isotype control in α-mPD-L1 column.
For experiment [8] the target is unchanged. The experiment is described as follows: flow cytometry, CD8+ T cells (CD3+CD8+) from spleen of humanized CD274 mouse, isotype control in α-mPD-L1 column.
In experiment [9] the target is mouse PD-L1 polypeptide on T cells of wild-type mice (mouse) (UniProt Q9EP73). The experiment is described as follows: flow cytometry, CD4+ T cells from spleen of wild-type mouse, unstimulated.
For experiment [10] the target is unchanged. The experiment is described as follows: flow cytometry, CD8+ T cells from spleen of wild-type mouse, unstimulated.
The target of experiment [11] is humanized PD-L1 polypeptide (human portion and endogenous mouse portion) on T cells of mice homozygous for the humanized CD274 gene of Example 1 (human; mouse) (UniProt Q9NZQ7). The experiment is described as follows: flow cytometry, CD4+ T cells from spleen of humanized CD274 mouse, unstimulated.
Experiment [12] shares this target. The experiment is described as follows: flow cytometry, CD8+ T cells from spleen of humanized CD274 mouse, unstimulated.
For experiment [13], the target named is mouse PD-L1 polypeptide on T cells of wild-type mice (mouse) (UniProt Q9EP73). The experiment is described as follows: flow cytometry, CD4+ T cells from spleen of wild-type mouse, stimulated with anti-CD3/anti-CD28 for 72 hours.
For experiment [14] the target is unchanged. The experiment is described as follows: flow cytometry, CD8+ T cells from spleen of wild-type mouse, stimulated with anti-CD3/anti-CD28 for 72 hours.
The target of experiment [15] is humanized PD-L1 polypeptide (human portion and endogenous mouse portion) on T cells of mice homozygous for the humanized CD274 gene of Example 1 (human; mouse) (UniProt Q9NZQ7). The experiment is described as follows: flow cytometry, CD4+ T cells from spleen of humanized CD274 mouse, stimulated with anti-CD3/anti-CD28 for 72 hours.
The target is the same in experiment [16]. The experiment is described as follows: flow cytometry, CD8+ T cells from spleen of humanized CD274 mouse, stimulated with anti-CD3/anti-CD28 for 72 hours.

UniProt Q9NZQ7, sequence (Q9NZQ7 other isoform, or with tags, fused parts or gaps limits assumed): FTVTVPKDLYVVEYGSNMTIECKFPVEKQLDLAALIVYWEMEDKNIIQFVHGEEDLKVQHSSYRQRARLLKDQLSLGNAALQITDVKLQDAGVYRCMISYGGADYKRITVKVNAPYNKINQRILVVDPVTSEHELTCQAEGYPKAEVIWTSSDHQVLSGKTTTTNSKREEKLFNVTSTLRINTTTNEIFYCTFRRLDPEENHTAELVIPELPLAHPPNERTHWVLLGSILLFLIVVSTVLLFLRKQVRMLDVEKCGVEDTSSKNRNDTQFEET
UniProt Q9EP73, sequence (Q9EP73 19-290): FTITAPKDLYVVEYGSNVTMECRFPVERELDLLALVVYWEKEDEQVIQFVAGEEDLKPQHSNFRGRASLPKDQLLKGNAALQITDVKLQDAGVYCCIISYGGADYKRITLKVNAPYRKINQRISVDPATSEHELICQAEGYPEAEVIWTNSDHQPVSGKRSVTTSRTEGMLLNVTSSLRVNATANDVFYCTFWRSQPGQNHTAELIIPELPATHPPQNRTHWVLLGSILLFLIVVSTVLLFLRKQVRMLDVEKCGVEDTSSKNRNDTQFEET

As to “Isotype control (α-hPD-L1 columns of Table 5) (antibody)”, the Mean Fluorescence Intensity in [1] is -58; in experiment [2] it was 64; in experiment [3] it was -55; in experiment [4], 78.

Turning to “Isotype control (α-mPD-L1 columns of Table 5) (antibody)”, the Mean Fluorescence Intensity in experiment [5] was -39; in [6], 64; in experiment [7], -52; in [8], 84.

For “anti-human PD-L1 antibody, clone MIH1 (BD Biosciences)”, the Mean Fluorescence Intensity is -45 in experiment [9]; 62 in experiment [10]; 114 in experiment [11]; 271 in [12]; 22 in experiment [13]; 113 in experiment [14]. Further, the Mean Fluorescence Intensity in experiment [15] stood at 457; in [16] it was 384.

Turning to “anti-mouse PD-L1 antibody, clone 10F.9G2 (eBioscience)”, the Mean Fluorescence Intensity was 538 in experiment [9]; 712 in experiment [10]; 61 in experiment [11]; 160 in experiment [12]; 2800 in experiment [13]; 3170 in experiment [14]. Moreover, the results for the Mean Fluorescence Intensity in [15] and in [16] were 155 and 276, respectively.
